Laboratory results as given in patent US11426422B2, “SHP2 inhibitors and methods of use thereof” (Research Development Foundation, priority 2018, dated 2022).
Where no end group is shown, it is not given here. [ ]: non-standard residue; d: D form. pY = N[C@@H](Cc1ccc(OP(=O)(O)O)cc1)C(=O)O; pS = N[C@@H](COP(=O)(O)O)C(=O)O

Tests used:
[1] = biological target: T1, AP2M1 (residues 160-435) (Homo sapiens, UniProt Q96CW1); test: in vitro peptide pull-down of AP2M1 with IRS1 peptides; type: binding; details: peptide beads pull-down, SDS-PAGE, Coomassie
T1 construct: The AP2M1 fragment (residues 160-435) was cloned into a modified pET28a; His6 (N, cleaved yes); made in house; host or cells: E. coli BL21(DE3)
T1 sequence (Q96CW1 160-435): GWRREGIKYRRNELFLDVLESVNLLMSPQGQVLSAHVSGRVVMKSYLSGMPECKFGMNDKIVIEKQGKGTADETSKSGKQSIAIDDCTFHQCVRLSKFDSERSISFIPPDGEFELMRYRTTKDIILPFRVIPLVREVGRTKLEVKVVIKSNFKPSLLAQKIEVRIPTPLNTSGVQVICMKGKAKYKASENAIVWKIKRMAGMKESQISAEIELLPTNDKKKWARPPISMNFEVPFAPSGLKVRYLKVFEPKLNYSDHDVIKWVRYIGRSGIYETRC
Description: FIGS. 2A-I. The MAPK pathway and SHP2 promote insulin-activated IR endocytosis. (FIG. 2A) HepG2 cells expressing IR-GFP WT were starved, treated with the indicated inhibitors for 2 h, treated without or with 100 nM insulin for 20 min, and stained with anti-GFP (IR; green) and DAPI (blue). See also FIG. 7A for representative images. Quantification of the ratios of PM and IC IR-GFP signals of cells was shown (mean±SD; *p<0.0001). (FIG. 2B) Binding of IRS1 peptides to AP2M1 (residues 160-435). Input and proteins bound to IRS1-peptide beads were analyzed by SDS-PAGE and stained with Coomassie (CBB). The relative band intensities are shown below (mean±SD; n=4 independent experiments). (FIG. 2C) ITC analysis of binding between IRS1 peptides and AP2M1 (residue 160-435), with the Kd indicated. (FIG. 2D) The IRS1 peptides were incubated with active SHP2 for the indicated durations, spotted onto membranes, and detected with the anti-pY612-IRS1 antibody. (FIG. 2E) Quantification of the relative SHP2 activity in FIG. 2D (mean±SD; n=4 independent experiments; *p<0.0001). (FIG. 2F) Model of the regulation of insulin-activated IR endocytosis by a phosphorylation switch on IRS1/2. Insulin-bound IR phosphorylates itself and IRS1/2, and activates the PI3K-AKT and MAPK pathways. SHP2 acts upstream of RAS-RAF and promotes the activation of MAPK pathway. p31^comet binds to the IR-bound MAD2 and blocks IR-AP2 association to prevent premature IR endocytosis. In feedback regulation, activated ERK1/2 phosphorylate S616 and other sites on IRS1. […]
For GST pull-down assays of in vitro translated (IVT) IRS1 proteins, beads bound to GST-AP2M1 or GST were incubated with IVT products diluted in the cell lysis buffer at 4° C. for 2 h. After incubation and washing, proteins bound to beads were eluted with the SDS loading buffer, resolved with SDS-PAGE, and detected with Coomassie staining or immunoblotting with the appropriate antibodies. […]

[2] = biological target: T2, SHP2 (Homo sapiens, UniProt Q06124); test: in vitro phosphatase assay, dephosphorylation of IRS1 peptides by active SHP2; type: biochemical; details: doubly versus singly phosphorylated IRS1 peptide; active SHP2 2.9 μM, peptide 2.6 mM, 37° C.
T2 construct: purchased SignalChem
T2 sequence (Q06124 1-593): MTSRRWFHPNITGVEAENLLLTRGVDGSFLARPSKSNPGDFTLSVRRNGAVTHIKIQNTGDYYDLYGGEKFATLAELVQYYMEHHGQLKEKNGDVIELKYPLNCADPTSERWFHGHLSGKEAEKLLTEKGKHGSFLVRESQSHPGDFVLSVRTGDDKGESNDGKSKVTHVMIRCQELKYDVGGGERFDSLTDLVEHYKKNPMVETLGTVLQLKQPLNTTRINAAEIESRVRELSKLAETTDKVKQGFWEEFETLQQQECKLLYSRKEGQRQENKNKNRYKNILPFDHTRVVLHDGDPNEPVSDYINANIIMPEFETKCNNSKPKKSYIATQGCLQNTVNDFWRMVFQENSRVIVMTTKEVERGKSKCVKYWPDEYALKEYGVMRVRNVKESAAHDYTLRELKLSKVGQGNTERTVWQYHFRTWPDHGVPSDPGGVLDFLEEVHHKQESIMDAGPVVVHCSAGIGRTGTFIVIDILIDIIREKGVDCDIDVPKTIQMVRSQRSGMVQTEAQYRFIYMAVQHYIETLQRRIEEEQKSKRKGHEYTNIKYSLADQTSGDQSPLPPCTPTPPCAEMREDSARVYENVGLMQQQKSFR
Text: To assess whether serine phosphorylation (pS616) of the YMPMS motif (SEQ ID NO:13) promotes dephosphorylation of pY612 by SHP2, its dephosphorylation kinetics were examined. […] Decreased IRS1 pS616 has been correlated with increased pY608 in vivo (Bard-Chapeau et al., 2005), and therefore, aside from directly augmenting the IRS1-AP2M1 interaction, ERK1/2-dependent phosphorylation of IRS1 indirectly promotes AP2M1 binding through enhancing the dephosphorylation of IRS1 by SHP2. Consistent with a role of ERK1/2-dependent phosphorylation of IRS1 in IR endocytosis, expression of the RNAi-resistant IRS1 phospho-mimicking mutant (3SD), but not the phospho-deficient mutant (3SA), restored IR endocytosis in 293FT cells depleted of IRS1/2 (FIG. 1G and FIG. 6E).
Active SHP2 (2.9 μM, SignalChem) diluted in the phosphatase dilution buffer (50 mM imidazole, pH 7.2, 0.2% 2-mercaptoethanol, 65 ng/μl BSA) was incubated with IRS1 peptides (2.6 mM) at 37° C. for the indicated time points. Two microliters of reaction products were spotted onto 0.45 m nitrocellulose membrane (BioRad) and dried completely. The membrane was blocked with 5% nonfat milk in TBS for 1 h, and washed once with TBS-T (0.02% Tween 20). […] The membranes were scanned with the Odyssey Infrared Imaging System (LI-COR, Lincoln, Nebr.) for quantification.

binding to AP2M1 [1]: abolished AP2M1 binding
dephosphorylation of pY612 by SHP2 [2]: promoted pY612 dephosphorylation by SHP2
Substance: pYMPMpS: doubly phosphorylated IRS1 peptide CHTDDGpYMPMpSPGVA (SEQ ID NO:16) (CHTDDG[pY]MPM[pS]PGVA)
